Columns and labels:
[1] = molecular target: T1, Dbp5 (Saccharomyces cerevisiae, UniProt P20449); experiment: kinetic competition with mantADP, FRET stopped flow; assay type: binding; settings: no RNA; 30 mM Hepes pH 7.5, 100 mM KCl, 2 mM MgCl2, 2 mM DTT, 25 °C
T1 construct: full-length, N-terminal 6xHis tag, expressed in E. coli
T1 sequence (P20449 1-482): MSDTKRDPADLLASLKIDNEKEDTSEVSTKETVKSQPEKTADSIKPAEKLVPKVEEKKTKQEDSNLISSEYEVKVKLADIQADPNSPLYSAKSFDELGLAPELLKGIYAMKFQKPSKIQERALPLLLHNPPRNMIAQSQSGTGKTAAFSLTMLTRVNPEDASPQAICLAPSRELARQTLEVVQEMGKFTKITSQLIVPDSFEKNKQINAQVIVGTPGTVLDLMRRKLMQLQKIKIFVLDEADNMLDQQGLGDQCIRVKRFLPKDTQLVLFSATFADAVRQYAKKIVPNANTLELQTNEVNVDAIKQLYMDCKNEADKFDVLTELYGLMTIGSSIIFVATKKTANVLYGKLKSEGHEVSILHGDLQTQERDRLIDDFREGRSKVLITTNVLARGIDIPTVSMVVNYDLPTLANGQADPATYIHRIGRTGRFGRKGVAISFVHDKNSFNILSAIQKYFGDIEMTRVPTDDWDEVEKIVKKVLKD
Excerpt: kinetic competition with mantADP, FRET stopped flow on Dbp5

[2] = molecular target: T1, Dbp5; experiment: transient Pi release lag phase, phosphate binding protein (PiBiP), stopped flow; assay type: biochemical; settings: no RNA; 30 mM Hepes pH 7.5, 100 mM KCl, 2 mM MgCl2, 2 mM DTT, 25 °C; ATP dissociation constant from lag-phase dependence; also determined by mant-nucleotide competition
Excerpt: transient Pi release lag phase, phosphate binding protein (PiBiP), stopped flow on Dbp5

[3] = molecular target: T1, Dbp5; experiment: FRET stopped flow, total fluorescence amplitude; assay type: binding
Excerpt: FRET stopped flow, total fluorescence amplitude on Dbp5

[4] = substrate: Nc1ncnc2c1ncn2[C@@H]1O[C@H](CO[P@](=O)(O)O[P@](=O)(O)O[P@@](=O)(O)S)[C@@H](O)[C@H]1O; experiment: NADH-coupled steady-state ATPase assay; assay type: biochemical, Saccharomyces cerevisiae; settings: no RNA, 30 mM Hepes pH 7.5, 100 mM KCl, 2 mM MgCl2, 2 mM DTT, 25 °C
Excerpt: (§1) NADH-coupled steady-state ATPase assay on Dbp5

[5] = substrate: Nc1ncnc2c1ncn2[C@@H]1O[C@H](COP(=O)(O)OP(=O)(O)OP(=O)(O)O)[C@@H](O)[C@H]1O; experiment: NADH-coupled steady-state ATPase assay; assay type: biochemical, Saccharomyces cerevisiae; settings: no RNA, 30 mM Hepes pH 7.5, 100 mM KCl, 2 mM MgCl2, 2 mM DTT, 25 °C
Excerpt: as §1

Molecule: Nc1ncnc2c1ncn2[C@@H]1O[C@H](COP(=O)(O)OP(=O)(O)O)[C@@H](O)[C@H]1O [ADP]
- Kd [1]: 360 µM

Molecule: Nc1ncnc2c1ncn2[C@@H]1O[C@H](COP(=O)(O)OP(=O)(O)OP(=O)(O)O)[C@@H](O)[C@H]1O [ATP]
- Kd [2]: 4000 µM

Molecule: CNc1ccccc1C(=O)O[C@H]1[C@@H](O)[C@H](n2cnc3c(N)ncnc32)O[C@@H]1CO[P@@](=O)(O)O[P@](=O)(O)OP(=O)(O)O [mantATP]
- Kd [3]: 1 µM

B1: Dbp5 (Saccharomyces cerevisiae S288C) (protein)
chain: T1 sequence (P20449 1-482)
notes: full-length, N-terminal 6xHis tag, expressed in E. coli
- Km [4]: 0.98 (± 0.06) mM
- kcat [4]: 0.036 (± 0.001) s^− 1
- Km [5]: 1.7 (± 0.2) mM
- kcat [5]: 0.043 (± 0.001) s^− 1

— PMC4744555, “Pi Release Limits the Intrinsic and RNA-Stimulated ATPase Cycles of DEAD-Box Protein 5 (Dbp5)” (Journal of Molecular Biology, 2016)
